The values below come from patent US20250154277A1 (CONCEPT TO MEDICINE BIOTECH, published 2025).

The EC50 is the midpoint of the concentration-response curve. One may read the Kd as the free concentration of one partner at which half of the binding sites on the other are occupied at equilibrium, for simple one-to-one binding. In general, koff refers to the first-order rate constant of dissociation. Low readings indicate a long-lived complex, high ones a short-lived complex. What is called kon is the second-order rate constant of association. A higher kon goes with faster complex formation.

In assay [1] the target is T1, human 5T4-His protein (human, UniProt Q13641 32-355).
T1 construct: also called recombinant 5T4 protein (human 5T4-his tag); human 5T4 protein; not shown: His tag
T1 sequence (looked up): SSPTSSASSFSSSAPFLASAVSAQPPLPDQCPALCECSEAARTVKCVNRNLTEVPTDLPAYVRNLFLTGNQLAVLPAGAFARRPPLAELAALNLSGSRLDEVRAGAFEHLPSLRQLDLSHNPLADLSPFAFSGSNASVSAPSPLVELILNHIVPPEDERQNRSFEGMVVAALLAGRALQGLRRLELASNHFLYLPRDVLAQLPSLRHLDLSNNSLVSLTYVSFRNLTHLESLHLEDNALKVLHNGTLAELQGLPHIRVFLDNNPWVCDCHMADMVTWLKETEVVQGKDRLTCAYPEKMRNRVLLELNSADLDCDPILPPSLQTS
The assay is described as follows: ELISA, coated 5T4-His. The method, then:
To evaluate the binding activity of clones, the 286B4 chimeric antibody along with 286B4 humanized mAbs were subjected to ELISA test.
Briefly, microtiter plates were coated with human 5T4-His protein at 1 μg/ml in PBS, 100 μl/well at 4° C. overnight, then blocked with 150 μl/well of 1% BSA. 4-fold dilutions of tested antibodies starting from 20 nM were added to each well and incubated for 1 hour at 37° C. The plates were washed with PBS/Tween and then incubated with Goat Anti-Human IgG-HRP for 30 mins at 37° C. After washing, the plates were developed with TMB substrate and analyzed by spectrophotometer at OD 450 nm. As shown in FIG. 16 and Table 15, most of the humanized clones bound to human 5T4 with high potency.
On the technique in general: ELISA stands for enzyme-linked immunosorbent assay.

Assay [2] addresses T1, human 5T4-His protein. The assay is described as follows: SPR Biacore, Protein A capture. The method, then:
The binding of the 286B4 humanized antibodies to recombinant 5T4 protein (human 5T4-his tag) was tested with Biacore using a capture method. The mAbs were captured using Protein A chip. A serial dilution of human 5T4-his tag protein was injected over captured antibody for 3 mins at a flow rate of 30 μl/min. The antigen was allowed to dissociate for 280-800 s. All the experiments were carried out on a Biacore T200. Data analysis was carried out using the Biacore T200 evaluation software.

B1: Hu286B4-8 (antibody, V domains shown)
VH: EVQLQESGPGLVKPSDTLSLTCAVSGYSISNNYYWNWIRQPPGKGLEWIGYITYDGSNNYNPSLKNRITMSRDTSKNQFSLKLSSVTAVDTAVYYCARGGGQLRFDYWGQGTTVTVSS
VL: DIQMTQSPSSLSASVGDRVTITCKASQSVSNEVTWYQQKPGKAPKMLIYYASNRYTGVPDRFSGSGYGTDFTFTISSLQPEDIATYYCQQDYSSPWTFGGGTKVEIK
notes: humanized
B1: the response in the assay with human 5T4-His protein [1] was half-maximal at 0.68 nM (EC50). Moreover, in the assay with human 5T4-His protein [2], binding was characterised by a dissociation constant (Kd) of 1.08 nM, the dissociation rate constant (koff) was determined as 0.000103 s⁻¹ and the on-rate constant (kon) amounted to 94600 M⁻¹ s⁻¹.

B2: Hu286B4-18 (antibody, V domains shown)
VH: EVQLQESGPGLVKPSDTLSLTCAVSGYSITNNYYWNWIRQPPGKGLEWMGYITYDGSNNYNPSLKNRITVSRDTSKNQFSLKLSSVTAVDTAVYYCTRGGGQLRFDYWGQGTTVTVSS
VL: DIQMTQSPSSLSASVGDRVTITCKASQSVSNEVTWYQQKPGKAPKMLIYYASNRYTGVPDRFSGSGYGTDFTFTISSLQPEDIATYYCQQDYSSPWTFGGGTKVEIK
notes: humanized
Molecule B2 displayed an EC50 in the assay with human 5T4-His protein [1] of 0.42 nM. Further, in the assay with human 5T4-His protein [2], binding was characterised by a dissociation constant (Kd) of 1.18 nM, the off-rate constant (koff) was 0.000133 s⁻¹ and the kon was found to be 113000 M⁻¹ s⁻¹.

B3: Hu286B4-3 (antibody, V domains shown)
VH: EVQLQESGPGLVKPSDTLSLTCAVSGYSISNNYYWNWIRQPPGKGLEWIGYITYDGSNNYNPSLKNRVTMSRDTSKNQFSLKLSSVTAVDTAVYYCARGGGQLRFDYWGQGTTVTVSS
VL: DIQMTQSPSSLSASVGDRVTITCKASQSVSNEVTWYQQKPGKAPKMLIYYASNRYTGVPDRFSGSGYGTDFTFTISSLQPEDIATYYCQQDYSSPWTFGGGTKVEIK
notes: humanized
In the case of B3, a half-maximal response in the assay with human 5T4-His protein [1] (EC50) required 0.51 nM. In the assay with human 5T4-His protein [2], this molecule showed an equilibrium dissociation constant (Kd) of 1.14 nM, an off-rate constant (koff) of 0.000107 s⁻¹ and a kon of 93400 M⁻¹ s⁻¹.

B4: Hu286B4-5 (antibody, V domains shown)
VH: EVQLQESGPGLVKPSDTLSLTCAVSGYSISNNYYWNWIRQPPGKGLEWIGYITYDGSNNYNPSLKNRVTMSRDTSKNQFSLKLSSVTAVDTAVYYCARGGGQLRFDYWGQGTTVTVSS
VL: SIVMTQSPSSLSASVGDRVTITCKASQSVSNEVTWYQQKPGKSPKMLIYYASNRYTGVPDRFSGSGYGTDFTFTISSLQPEDIATYFCQQDYSSPWTFGGGTKVEIK
notes: humanized
With B4, the concentration for a half-maximal effect (EC50) with human 5T4-His protein [1] was found to be 0.28 nM. Also, in the assay with human 5T4-His protein [2], binding was characterised by a dissociation constant (Kd) of 1.2 nM, the koff came to 0.000128 s⁻¹ and the kon stood at 106000 M⁻¹ s⁻¹.

B5: Hu286B4-15 (antibody, V domains shown)
VH: EVQLQESGPGLVKPSDTLSLTCAVSGYSISNNYYWNWIRQPPGKGLEWMGYITYDGSNNYNPSLKNRITVSRDTSKNQFSLKLSSVTAVDTAVYYCARGGGQLRFDYWGQGTTVTVSS
VL: SIVMTQSPSSLSASVGDRVTITCKASQSVSNEVTWYQQKPGKSPKMLIYYASNRYTGVPDRFSGSGYGTDFTFTISSLQPEDIATYFCQQDYSSPWTFGGGTKVEIK
notes: humanized
Molecule B5 displayed a 50% effective concentration (EC50) in the assay with human 5T4-His protein [1] of 0.25 nM. In the assay with human 5T4-His protein [2], this molecule returned a dissociation constant (Kd) of 1.04 nM, a dissociation rate constant (koff) of 0.000114 s⁻¹ and a kon of 110000 M⁻¹ s⁻¹.

B6: Hu286B4-13 (antibody, V domains shown)
VH: EVQLQESGPGLVKPSDTLSLTCAVSGYSISNNYYWNWIRQPPGKGLEWMGYITYDGSNNYNPSLKNRITVSRDTSKNQFSLKLSSVTAVDTAVYYCARGGGQLRFDYWGQGTTVTVSS
VL: DIQMTQSPSSLSASVGDRVTITCKASQSVSNEVTWYQQKPGKAPKMLIYYASNRYTGVPDRFSGSGYGTDFTFTISSLQPEDIATYYCQQDYSSPWTFGGGTKVEIK
notes: humanized
B6: a half-maximal response with human 5T4-His protein [1] (EC50) required 0.57 nM. In the assay with human 5T4-His protein [2], this molecule yielded a Kd of 1.12 nM, a koff of 0.000107 s⁻¹ and a kon of 95500 M⁻¹ s⁻¹.
